Results on one substance are retold here after patent EP1313846B1.

In this experiment the target is Savinase® (subtilisin 309) (UniProt P29600). The experiment in a line: cell-based or functional assay.
UniProt P29600, sequence (P29600 whole entry): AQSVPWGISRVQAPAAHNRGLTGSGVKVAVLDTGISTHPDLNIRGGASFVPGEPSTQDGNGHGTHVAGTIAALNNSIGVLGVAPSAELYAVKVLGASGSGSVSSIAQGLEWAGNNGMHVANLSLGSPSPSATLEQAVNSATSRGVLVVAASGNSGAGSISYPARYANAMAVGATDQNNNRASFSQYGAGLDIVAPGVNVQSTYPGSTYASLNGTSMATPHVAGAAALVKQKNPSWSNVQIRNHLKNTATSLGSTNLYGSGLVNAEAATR

Consider “trypsin inhibitor type IV-0 (Ovo-inhibitor), Sigma T-1886 (from UniProt P10184 69-517)”, for which the RA (%) (Residual Activity, Ovo-inhibition Assay; hydrolysis of Suc-Ala-Ala-Pro-Phe-pNA with and without inhibitor) was under 5%.
